Source: article PMC10883291

B1: BMS-986351 (antibody, V domains shown)
VH: QVQLVQSGAEVKKPGASVKVSCKASGYTFRGYGISWVRQAPGQGLEWMGWISAYGGETNYAQKLQGRVTMTTDTSTSTAYMELRSLRSDDTAVYYCAREAGSSWYDFDLWGRGTLVTVSS
VL: DIQMTQSPSSVSASVGDRVTITCRASQGISSWLAWYQQKPGKAPKLLIYAASNLQSGVPSRFSGSGSGTDFTLTISSLQPEDFATYYCQQGASFPITFGGGTKVEIK
B2: BMS-986351-Fab (Fab, V domains shown)
VH: QVQLVQSGAEVKKPGASVKVSCKASGYTFRGYGISWVRQAPGQGLEWMGWISAYGGETNYAQKLQGRVTMTTDTSTSTAYMELRSLRSDDTAVYYCAREAGSSWYDFDLWGRGTLVTVSS
VL: DIQMTQSPSSVSASVGDRVTITCRASQGISSWLAWYQQKPGKAPKLLIYAASNLQSGVPSRFSGSGSGTDFTLTISSLQPEDFATYYCQQGASFPITFGGGTKVEIK

What was measured:
[1] = target: FcγR2A (CD32aR131) (human); assay: FRET or BRET; time-resolved FRET (Cisbio); FcγRs expressed on HEK293 cells (Tb donor cells); IgG-d2 acceptor conjugate displaced by the test antibodies; EC50 by the manufacturer's protocol
[2] = target: FcγR3A (CD16aV158) (human); assay: as above
[3] = target: SIRPα variant 5 Fc (haplotype v5 EPN) (human) (UniProt P78324); assay: BLI; Octet, under affinity conditions; SIRPα variants 1-6 Fc captured on anti-human capture tips, dipped into 50 nmol/L BMS-986351-Fab; association 180 s, dissociation 180 s; 2 x 10^-4 is the limit of koff that can be confidently assigned
[4] = target: SIRPα variant 4 Fc (haplotype v4 ESK) (human) (UniProt P78324); assay: as above
[5] = target: SIRPα variant 3 Fc (haplotype v3 DLE) (human) (UniProt P78324); assay: as above
[6] = target: SIRPα variant 6 Fc (haplotype v6 ELE) (human) (UniProt P78324); assay: as above
SIRPα variant 6 Fc (haplotype v6 ELE) (human), sequence (P78324 other isoform, or with tags, fused parts or gaps, change not shown): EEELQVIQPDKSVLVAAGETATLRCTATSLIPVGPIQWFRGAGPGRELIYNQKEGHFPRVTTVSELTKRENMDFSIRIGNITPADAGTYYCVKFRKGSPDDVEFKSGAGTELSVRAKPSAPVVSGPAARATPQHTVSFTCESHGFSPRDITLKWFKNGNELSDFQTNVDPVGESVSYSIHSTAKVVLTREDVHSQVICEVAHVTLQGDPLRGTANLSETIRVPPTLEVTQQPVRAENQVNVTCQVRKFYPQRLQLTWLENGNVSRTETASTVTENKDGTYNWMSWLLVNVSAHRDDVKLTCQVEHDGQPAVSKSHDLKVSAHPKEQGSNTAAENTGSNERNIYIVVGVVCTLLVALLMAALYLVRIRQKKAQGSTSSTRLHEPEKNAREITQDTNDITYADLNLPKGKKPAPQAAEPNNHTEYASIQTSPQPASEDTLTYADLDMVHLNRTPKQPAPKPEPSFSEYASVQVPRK

SIRPα variant 5 Fc (haplotype v5 EPN) (human), sequence (P78324 other isoform, or with tags, fused parts or gaps, change not shown): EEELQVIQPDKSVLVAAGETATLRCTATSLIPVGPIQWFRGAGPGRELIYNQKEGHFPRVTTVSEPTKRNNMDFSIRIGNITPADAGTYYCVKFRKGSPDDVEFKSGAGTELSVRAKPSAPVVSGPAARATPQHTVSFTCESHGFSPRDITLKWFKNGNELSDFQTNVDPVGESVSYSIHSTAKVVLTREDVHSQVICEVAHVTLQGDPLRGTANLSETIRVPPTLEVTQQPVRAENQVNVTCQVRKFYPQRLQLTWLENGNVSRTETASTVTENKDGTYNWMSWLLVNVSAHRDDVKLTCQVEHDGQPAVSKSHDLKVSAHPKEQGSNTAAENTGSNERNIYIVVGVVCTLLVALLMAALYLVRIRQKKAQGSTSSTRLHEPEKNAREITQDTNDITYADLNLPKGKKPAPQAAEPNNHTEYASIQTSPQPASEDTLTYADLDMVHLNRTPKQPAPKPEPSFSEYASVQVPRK
SIRPα variant 4 Fc (haplotype v4 ESK) (human), sequence (P78324 other isoform, or with tags, fused parts or gaps, change not shown): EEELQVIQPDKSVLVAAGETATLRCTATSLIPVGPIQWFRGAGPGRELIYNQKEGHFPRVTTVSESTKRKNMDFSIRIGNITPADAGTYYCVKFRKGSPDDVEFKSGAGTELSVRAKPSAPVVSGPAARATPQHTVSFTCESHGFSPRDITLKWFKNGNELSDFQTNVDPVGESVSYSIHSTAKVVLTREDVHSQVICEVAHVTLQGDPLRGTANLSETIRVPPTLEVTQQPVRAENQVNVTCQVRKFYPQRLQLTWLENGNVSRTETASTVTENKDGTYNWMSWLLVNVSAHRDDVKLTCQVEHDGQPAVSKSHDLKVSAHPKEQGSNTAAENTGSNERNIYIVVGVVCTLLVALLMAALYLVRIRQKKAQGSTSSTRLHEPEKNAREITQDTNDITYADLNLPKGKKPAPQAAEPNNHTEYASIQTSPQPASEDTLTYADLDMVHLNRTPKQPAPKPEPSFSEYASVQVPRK
SIRPα variant 3 Fc (haplotype v3 DLE) (human), sequence (P78324 other isoform, or with tags, fused parts or gaps, change not shown): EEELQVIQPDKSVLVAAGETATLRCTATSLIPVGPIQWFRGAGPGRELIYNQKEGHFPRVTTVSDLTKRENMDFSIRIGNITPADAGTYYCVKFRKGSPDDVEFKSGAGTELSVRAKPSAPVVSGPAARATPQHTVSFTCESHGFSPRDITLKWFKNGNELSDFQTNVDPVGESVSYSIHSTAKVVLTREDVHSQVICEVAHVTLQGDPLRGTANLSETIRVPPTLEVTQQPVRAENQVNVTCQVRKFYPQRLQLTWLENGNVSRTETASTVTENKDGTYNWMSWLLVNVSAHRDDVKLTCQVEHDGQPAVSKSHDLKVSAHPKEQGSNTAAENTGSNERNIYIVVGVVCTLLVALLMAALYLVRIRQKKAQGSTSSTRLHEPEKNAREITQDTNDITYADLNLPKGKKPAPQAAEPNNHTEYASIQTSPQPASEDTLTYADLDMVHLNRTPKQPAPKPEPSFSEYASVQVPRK
FcγR2A (CD32aR131) (human), sequence (P12318 34-317 H167R): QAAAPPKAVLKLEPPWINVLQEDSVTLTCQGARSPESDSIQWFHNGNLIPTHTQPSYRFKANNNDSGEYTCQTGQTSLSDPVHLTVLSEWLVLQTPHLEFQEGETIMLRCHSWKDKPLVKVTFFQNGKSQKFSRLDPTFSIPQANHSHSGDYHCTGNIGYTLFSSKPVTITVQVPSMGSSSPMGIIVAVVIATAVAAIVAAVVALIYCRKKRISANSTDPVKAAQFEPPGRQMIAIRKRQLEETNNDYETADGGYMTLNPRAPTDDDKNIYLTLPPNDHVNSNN
FcγR3A (CD16aV158) (human), sequence (P08637 17-254 F176V): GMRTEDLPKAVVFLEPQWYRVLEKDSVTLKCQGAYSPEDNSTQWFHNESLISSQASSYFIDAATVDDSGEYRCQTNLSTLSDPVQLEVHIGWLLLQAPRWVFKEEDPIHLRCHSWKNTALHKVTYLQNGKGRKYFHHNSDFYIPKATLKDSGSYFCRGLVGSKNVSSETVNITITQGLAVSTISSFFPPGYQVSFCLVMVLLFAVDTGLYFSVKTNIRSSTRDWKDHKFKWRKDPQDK

Binder | EC50 [1] | EC50 [2] | Kd [3] | koff [3] | kon [3] | Kd [4] | koff [4] | kon [4] | Kd [5] | koff [5] | kon [5] | Kd [6] | koff [6] | kon [6]
B1 | 188 nM | 795 nM |  |  |  |  |  |  |  |  |  |  |  | 
B2 |  |  | 0.611 nM | 0.00106 s⁻¹ | 1.73e+06 M⁻¹ s⁻¹ | 1.52 nM | 0.00228 s⁻¹ | 1.5e+06 M⁻¹ s⁻¹ | < 0.145 nM | < 0.0002 s⁻¹ | 1.38e+06 M⁻¹ s⁻¹ | 0.183 nM | 0.000356 s⁻¹ | 1.94e+06 M⁻¹ s⁻¹
